Legend:
[1] = biological target: GST-HTTex1p 51QP (expanded HTT exon 1 with the proline-rich region); assay: pull-down
[2] = biological target: GST-HTTex1p 20QP (unexpanded HTT exon 1 with the proline-rich region); assay: pull-down

- percent of 35S-labeled PIAS1 bound [1]: 7%
- percent of 35S-labeled PIAS1 bound [2]: 7.75%
Substance: radiolabeled human PIAS1 (from UniProt O75925-1 1-651) (natural protein)
